In one data set the test system is PEPC. Description: Effect of calcium and Mg^2+ on PEPC activity. Format: biochemical, Hyphomicrobium.
Data set [1] relates to Hyphomicrobium PEPC. Particulars: pH 8.0, 167 mM Tricine buffer + 1 mM MgCl2.
Description: The effect of bicarbonate on the activity of PEPC was evaluated at pH 8.0 in 167 mM Tricine buffer+1 mM MgCl2.
In data set [2] the test system is Hyphomicrobium PEPC. Put plainly: Km of Hyphomicrobium PEPC with phosphoenol pyruvate salts. Format: biochemical. Particulars: pH 7.0 and 25° C. The procedure: The Km's of Hyphomicrobium PEPC were checked with both sodium bicarbonate and phosphoenol pyruvate as substrates.
The result is 0.91 mM for the tricyclohexylammonium salt.

Data set [3] in a line: Specific activity of PEPC (malate dehydrogenase/NADH-coupled assay, A340). Format: biochemical. The procedure:
(a) Lysis is performed with a solution of Triton X-100, a non-ionic detergent. It is added to resuspended cells (10% w/v) at 1% v/v. Lysis usually takes about 1 to 1.5 hours at 15° to 20° C. Once lysis is complete, the cell debris is removed by centrifugation with the aid of streptomycin sulphate.
(§1) (b) Column chromatography involves the use of a strong anion exchanger such as Fractogel-TMAE, DEAE sepharose, Q sepharose, DE 52 or QA 52.
(§2) For a large volume of enzyme solution, the absorption can be is carried out as a batch up-take. The gel also has a batch wash prior to packing into the column for a gradient elution.
(§3) The gradient is of increasing salt concentration. The active fractions are pooled to give a specific activity of >30 U/mg but some fractions contain enzyme of 60 U/mg protein.
Lyophilised PEPC powder is obtained, having the following characteristics:
A 167 mM Tricine. HCl buffer, pH 8.0, containing 16.7 mM MgCl2
B 20.7 mM sodium bicarbonate in Reagent A
C 217 mM phosphoenolpyruvate in Reagent A
D 10 mM NADH solution, the concentration of which is checked in the following way:
1 Dispense 0.98 ml of Reagent A into a cuvette and zero a spectrophotometer set at 340 nm with this cuvette
2 Add 0.02 ml of Reagent D to this cuvette and mix thoroughly
E 700 U/ml malate dehydrogenase
1 Adjust spectrophotometer to 340 nm and 25° C.
2 Prepare a reagent cocktail as follows:
Into a 50 ml beaker dispense; 46.0 ml Reagent B 1.0 ml Reagent C
This cocktail is stable for 8 hr when stored at 4° C.
3 Dispense 0.94 ml of the reagent cocktail into a cuvette together with 0.02 ml of Reagent D, and 0.02 ml of Reagent E
Incubate the cuvette in the spectrophotometer at 25° C. to attain temperature equilibration and then establish background rate, if any
4 Dilute the enzyme to approximately 1.5 U/ml in reagent A, and initiate the reaction by adding 0.02 ml of this solution to the cuvette
5 Calculate the change in absorbance (ΔA/rain) over the linear portion of the reaction [formula]

Data set [4] in a line: Storage of enzyme on anion exchange gel: recovery and pool specific activity. Format: physicochemical. As to the method: as §1, §2, §3
If stored for longer, then the recoveries begin to decrease.

Data set [5] is described as follows: Stability of reconstituted enzyme with azide. Format: physicochemical. As to the method: The enzyme was stored in assay buffer (167 mM Tricine/HCl with 15 mM MgCl2, pH 8.0).
Data set [6] is described as follows: pH stability of enzyme solutions stored at 25° C. Format: physicochemical. The procedure:
For pH 6.0, 8.0 and 9.0, 150 mM Tricine+1 mM MgCl2 was used. For pH 7.0 150 mM bis-tris+1 mM MgCl2 was chosen. Solutions were stored at 25° C.

A short description of data set [7]: Effect of pH on the enzyme activity (buffers and pH changed). Format: biochemical. The source says: The effect of pH on the enzyme activity was checked by changing the buffers as well as pH values. Once again, at pH 7 Bis-tris was used.
A short description of data set [8]: Effect of temperature on the activity of PEPC. Format: biochemical. Particulars: 167 mM tricine pH 7.0, 1 mM MgCl2. The procedure: The effect of temperature on the activity of PEPC was evaluated. Lyophilised enzyme was resuspended in 167 mM tricine buffer pH 7.0 containing 1 mM MgCl2 at a concentration of 300 u/l. The enzyme was then assayed at the desired temperature using the recommended reagents.

Data set [9] is described as follows: Effect of pH on the activity of PEPC. Format: biochemical. The procedure:
The effect of pH on the activity of PEPC was evaluated. Lyophilised enzyme was resuspended (10 mg/ml)) in 167 mM Tricine pH 8.0 (+1 mM MgCl2) and diluted to a concentration of 1 u/ml. The enzyme was then assayed in the following buffer systems. At pH 6.0, 8.0 and 9.0 Tricine (150 mM) was used. At pH 6.5 and 7.0 bis-tris (150 mM) was used.

For data set [10] the following is noted: lyophilised.
Description: Stability trials have been conducted on lyophilised enzyme, at 4° C., 25° C. and 37° C.
All recoveries are based on specific activity to rule out weighing errors.
For data set [11] the following is noted: pH 7.
For data set [12] the following is noted: isolated enzyme.
The mark [13] stands for this setting: after anion exchange gradient elution.

Where a name gives a salt, the structure may show the parent alone. Read-outs that look alike come from different tables or passages of the source. Some results are limits rather than exact numbers.

On to `[Mg+2]` [Mg^2+], for which, in the data set on PEPC, the “activation of the enzyme” value is “only effective activator of the enzyme”. The “activation, chloride vs sulphate” value with PEPC (chloride compound compared with sulphate) is recorded as “works better as the chloride compound than as the sulphate”.
By Km is commonly meant the substrate concentration at which the rate is half of its maximum. As to `O=C(O)O` [bicarbonate, sodium bicarbonate], the Km with Hyphomicrobium PEPC [1] is 1300 µM; in the data set with Hyphomicrobium PEPC [1] (read-out: Km (probable, without dissolved carbon dioxide from the atmosphere)), less than 1000 µM.
For `[Ca+2]` [calcium], the “effect on PEPC activity” value with PEPC (low concentrations) is recorded as “inhibitory effect”.
For `C=C(OP(=O)(O)O)C(=O)O` [tricyclohexylammonium salt, phosphoenol pyruvate], in the data set with Hyphomicrobium PEPC [2], the Km came to 910 µM and the “Km, comparison of PEP salts” value is recorded as “very similar”.
Consider phosphoenolpyruvate carboxylase [PEPC], for which, in data set [3] (setting [13]), the “specific activity of pooled active fractions” value is greater than 30 U/mg. Besides, the “specific activity of some fractions” value in data set [3] (setting [13]) is reported as 60 U/mg protein. The molecule further yielded a Powder activity in [3] (lyophilised PEPC powder) greater than 10 U/mg. Also, the Specific activity in [3] (lyophilised PEPC powder) was greater than 25 U/mg Protein. Also, the “Pool S/A” value is 37.4 U/mg in data set [4] (0 days stored on gel), 33.0 U/mg in data set [4] (2 days stored on gel), 28.1 U/mg in [4] (4 days stored on gel) and 26.9 U/mg in data set [4] (8 days stored on gel). The Total recovery was found to be 91% in data set [4] (0 days stored on gel), 85% in data set [4] (2 days stored on gel), 76% in data set [4] (4 days stored on gel) and 60% in data set [4] (8 days stored on gel). For the same molecule, in data set [4] (held on the gel overnight), the “loss of activity on gel” value is given as “no loss of activity”. Moreover, the “% activity recovered” value is listed as 94% in [5] (pH 8.0, 4 days, 4° C.); 104% in data set [5] (pH 8.0, 4 days, 25° C.); 2% in [5] (pH 8.0, 4 days, 37° C.); 96% in [5] (pH 8.0, 7 days, 4° C.); 92% in data set [5] (pH 8.0, 7 days, 25° C.); 0% in data set [5] (pH 8.0, 7 days, 37° C.). Moreover, the “% activity recovered” value in data set [5] (pH 8.0, 14 days, 4° C.) is given as 94%; in data set [5] (pH 8.0, 14 days, 25° C.), 93%; in data set [5] (pH 8.0, 30 days, 4° C.), 100%; in data set [5] (pH 8.0, 30 days, 25° C.) it was 86%; in data set [5] (pH 8.0, 42 days, 4° C.), 105%; in data set [5] (pH 8.0, 42 days, 25° C.) it was 85%. Also, the “% activity recovered” value in data set [5] (pH 8.0, 63 days, 4° C.) was 105%; in [5] (pH 8.0, 63 days, 25° C.), 66%; in data set [6] (pH 6, 7 days, Tricine), 69%; in data set [6] (pH 6, 12 days, Tricine) it was 45.5%; in data set [6] (pH 7, 7 days, bis-tris), 99%; in data set [6] (pH 7, 12 days, bis-tris), 78.2%. Further, the “% activity recovered” value in [6] (pH 8, 7 days, Tricine) is on record as 81.8%; in data set [6] (pH 8, 12 days, Tricine), 67.3%; in [6] (pH 9, 7 days, Tricine) it was 78.2%; in data set [6] (pH 9, 12 days, Tricine) it was 56.4%; in data set [7] (pH 6), 65.5%; in data set [7] (pH 6.5), 74.5%. In addition, the “% activity recovered” value in [7] (pH 7.0, Bis-tris) worked out at 100%; in data set [7] (pH 8.0), 88.2%; in [7] (pH 9.0), 74.5%; in [10] (0 days, 4° C.) it was 100%; in data set [10] (0 days, 25° C.), 100%; in [10] (0 days, 37° C.), 100%. Also, the “% activity recovered” value in [10] (3 days, 25° C.) amounted to 95%; in [10] (3 days, 37° C.) it was 97%; in data set [10] (7 days, 4° C.), 83%; in [10] (7 days, 25° C.), 83%; in [10] (7 days, 37° C.), 87%; in [10] (10 days, 25° C.) it was 94%. Further, the “% activity recovered” value turned out to be 91% in data set [10] (10 days, 37° C.); 92% in data set [10] (18 days, 4° C.); 88% in data set [10] (18 days, 25° C.); 90% in [10] (18 days, 37° C.); 90% in data set [10] (24 days, 25° C.); 87% in data set [10] (24 days, 37° C.). In addition, the “% activity recovered” value is given as 114% in data set [10] (50 days, 4° C.) and 110% in data set [10] (77 days, 4° C.). The relative activity entry is “approximately 10%” in data set [8] (20° C.); 100% in data set [8] (50° C.); “approximately 10%” in data set [8] (55° C.); “approximately 70%” in [9] (pH 6.0, Tricine (150 mM)); roughly 85% in data set [9] (pH 6.5, bis-tris (150 mM)); roughly 115% in data set [9] (pH 7.0, bis-tris (150 mM)). Also, the relative activity in [9] (pH 8.0, Tricine (150 mM)) was roughly 100%; in data set [9] (pH 9.0, Tricine (150 mM)), roughly 90%. Moreover, the stability and activity entry in data set [11] is “better stability and activity”. Also, the pH profile entry in data set [12] was “broad pH profile”.

Values taken from patent publication US5514538A, “Bicarbonate assay and phosphoenolpyruvate carboxylase enzyme from hyphomicrobium” (Genzyme Limited, priority 1990, dated 1996).
